# Results published in patent US20240092919A1 (Ablynx, published 2024).
# B1: T017000680 (VHH)
# VHH: DVQLVESGGGVVQPGGSLRLSCVASGYVHKINFYGWYRQAPGKEREKVAHISIGDQTDYADSAKGRFTISRDESKNTVYLQMNSLRPEDTAAYYCRALSRIWPYDYWGQGTLVTVSS
# B2: T017000624 (VHH, not shown: small tags and cut ends)
# VHH: EVQLVESGGGVVQPGGSLRLSCVASGYVHKINFYGWYRQAPGKEREKVAHISIGDQTDYADSAKGRFTISRDESKNTVYLQMNSLRPEDTALYYCRALSRIWPYDYWGQGTLVTVSS
# B3: T0170056G05 (VHH, not shown: small tags and cut ends)
# VHH: EVQLVESGGGLVQPGGSLRLSCVASGDVHKINFLGWYRQAPGKEREKVAHISIGDQTDYADSAKGRFTISRDESKNMVYLQMNSLKPEDTAVYFCRAFSRIYPYDYWGQGTLVTVSS
# notes: also called T01700056G05; parental anti-TCR ISVD
# B4: T017000680 (VHH)
# VHH: DVQLVESGGGVVQPGGSLRLSCVASGYVHKINFYGWYRQAPGKEREKVAHISIGDQTDYADSAKGRFTISRDESKNTVYLQMNSLRPEDTAAYYCRALSRIWPYDYWGQGTLVTVSS
# B5: T017000698 (bispecific antibody)
# chain: DVQLVESGGGVVQPGGSLRLSCVASGYVHKINFYGWYRQAPGKEREKVAHISIGDQTDYADSAKGRFTISRDESKNTVYLQMNSLRPEDTAAYYCRALSRIWPYDYWGQGTLVTVSSGGGGSGGGSEVQLVESGGGVVQPGGSLRLSCAASGFTFRSFGMSWVRQAPGKGPEWVSSISGSGSDTLYADSVKGRFTISRDNSKNTLYLQMNSLRPEDTALYYCTIGGSLSRSSQGTLVTVSSA
# notes: also called T017000680-9GS-ALB23002-A; TCE01-9GS-ALB23002-A
# How the values were obtained:
# [1] = biological target: T1, Human T cell receptor on human primary T cells (human, UniProt P01848 1-140; P01850 1-176); assay: flow cytometry competition with Flag3-His6-tagged anti-TCR ISVD ligand, human primary T cells
# T1 construct: whole, on cells
# Experimental: (§2) Subsequently, cells were resuspended in FACS buffer supplemented with 1 μg/ml Propidium Iodide (PI, Sigma, P4170) to distinguish live from dead cells. Cells were analyzed using a FACS Array flow cytometer (BD Biosciences) using Flowing Software. First a P1 population which represented more than 80% of the total cell population was selected based on FSC-SSC distribution. In this gate, 10000 cells were counted during acquisition. From this population the Propidium iodide or TO-PRO©-3 Iodide positive cells (dead cells) were excluded and the median or Mean PE value was calculated.
# T1 TCR alpha (looked up): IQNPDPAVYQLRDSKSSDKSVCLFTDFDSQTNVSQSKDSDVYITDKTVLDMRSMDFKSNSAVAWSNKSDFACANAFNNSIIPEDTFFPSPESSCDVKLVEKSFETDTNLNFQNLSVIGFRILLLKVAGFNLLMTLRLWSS
# T1 TCR beta (looked up): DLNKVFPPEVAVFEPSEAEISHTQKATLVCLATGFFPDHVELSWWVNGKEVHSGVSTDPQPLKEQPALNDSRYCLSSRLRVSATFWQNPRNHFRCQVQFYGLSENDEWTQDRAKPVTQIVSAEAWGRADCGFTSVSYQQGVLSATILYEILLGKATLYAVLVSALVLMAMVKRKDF
# [2] = biological target: T2, Cynomolgus T cell receptor on the HSC-F cynomolgus T cell line (cynomolgus monkey); assay: flow cytometry competition with Flag3-His6-tagged anti-TCR ISVD ligand, HSC-F cells
# T2 construct: whole, on cells; also called HSC-F cells; HSC-F cyno T cell line (NIBIO JCRB1164)
# Experimental: as §2
# [3] = biological target: T3, Cynomolgus TCR(AEA41865/AEA41866)-zipper protein (cynomolgus monkey); assay: SPR, ProteOn XPR36, 37 C, immobilised TCR-zipper
# T3 construct: also called cyTCR-zipper protein; cynoTCR zipper
# Source text: In brief, huTCR-zipper or cyTCR-zipper protein was immobilized on a GLC sensor chip (between 100-200 RU) via amine coupling chemistry, using EDC/NHS for activation of the carboxyl groups on the chip surface (running buffer: HBS-EP+, pH7.4). […] Processed sensorgrams were fitted with the Langmuir model (1:1 interaction) using ProteOn Manager 3.1.0 (Version 3.1.0.6) software.
# T3 TCR alpha: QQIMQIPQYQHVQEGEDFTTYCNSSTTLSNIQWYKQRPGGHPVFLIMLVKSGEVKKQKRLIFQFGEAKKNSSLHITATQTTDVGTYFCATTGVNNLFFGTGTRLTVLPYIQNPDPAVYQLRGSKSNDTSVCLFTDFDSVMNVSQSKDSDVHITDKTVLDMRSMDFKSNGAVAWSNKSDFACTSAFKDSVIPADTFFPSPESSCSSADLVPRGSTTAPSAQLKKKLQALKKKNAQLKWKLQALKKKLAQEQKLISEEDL
# T3 TCR beta: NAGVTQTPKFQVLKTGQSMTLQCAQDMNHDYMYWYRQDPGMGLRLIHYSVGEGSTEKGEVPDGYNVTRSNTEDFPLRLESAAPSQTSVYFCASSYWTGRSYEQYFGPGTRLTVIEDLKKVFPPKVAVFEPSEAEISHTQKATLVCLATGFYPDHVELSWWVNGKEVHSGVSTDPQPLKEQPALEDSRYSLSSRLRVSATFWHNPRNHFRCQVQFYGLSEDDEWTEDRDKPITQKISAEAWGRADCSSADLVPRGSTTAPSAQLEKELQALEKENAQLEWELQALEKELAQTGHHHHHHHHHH
# [4] = biological target: T4, Cynomolgus TCR(AEA41865/AEA41866)-zipper protein (cynomolgus monkey); assay: SPR (ProteOn XPR36), KD on cyTCR-zipper against KD on huTCR-zipper
# T4 construct: also called cyTCR-zipper; cynoTCR-zipper protein
# Source text: HuTCR-zipper or cyTCR-zipper protein was immobilized on a GLC sensor chip (between 100-200 RU) via amine coupling chemistry, using EDC/NHS for activation of the carboxyl groups on the chip surface (running buffer: HBS-EP+, pH7.4). […] Processed sensorgrams were fitted with the Langmuir model (1:1 interaction) using ProteOn Manager 3.1.0 (Version 3.1.0.6) software.
# T4 TCR alpha: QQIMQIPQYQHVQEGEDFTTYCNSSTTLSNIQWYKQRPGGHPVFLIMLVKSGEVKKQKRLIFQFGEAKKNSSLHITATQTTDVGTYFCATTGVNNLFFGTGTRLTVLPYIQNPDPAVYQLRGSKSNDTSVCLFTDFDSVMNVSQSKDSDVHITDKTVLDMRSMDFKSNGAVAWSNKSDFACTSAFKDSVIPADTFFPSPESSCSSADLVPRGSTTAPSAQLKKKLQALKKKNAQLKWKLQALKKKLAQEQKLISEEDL
# T4 TCR beta: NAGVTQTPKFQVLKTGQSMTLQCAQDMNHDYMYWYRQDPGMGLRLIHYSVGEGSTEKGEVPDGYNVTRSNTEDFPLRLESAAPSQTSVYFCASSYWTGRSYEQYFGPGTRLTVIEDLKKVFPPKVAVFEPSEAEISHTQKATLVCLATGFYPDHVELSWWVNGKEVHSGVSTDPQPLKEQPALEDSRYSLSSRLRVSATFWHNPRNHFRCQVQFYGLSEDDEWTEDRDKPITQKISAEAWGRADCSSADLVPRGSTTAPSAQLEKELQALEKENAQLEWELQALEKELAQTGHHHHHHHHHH
# [5] = biological target: T4, Cynomolgus …; assay: BLI (Octet RED384), KD on cyTCR-zipper against KD on huTCR-zipper
# Experimental: Affinity constants (KD) were calculated applying a 1:1 interaction model using the ForteBio Data Analysis software.
# [6] = biological target: T4, Cynomolgus …; assay: SPR (ProteOn XPR36, 37°C), KD on huTCR-zipper against KD on cyTCR-zipper
# [7] = biological target: T5, Cynomolgus TCR(AEA41865/AEA41866)-zipper protein (cynomolgus); assay: SPR, ProteOn XPR36; TCR-zipper protein immobilised by amine coupling
# T5 construct: also called cyTCR-zipper; cyTCR(AEA41865)-zipper
# T5 TCR alpha: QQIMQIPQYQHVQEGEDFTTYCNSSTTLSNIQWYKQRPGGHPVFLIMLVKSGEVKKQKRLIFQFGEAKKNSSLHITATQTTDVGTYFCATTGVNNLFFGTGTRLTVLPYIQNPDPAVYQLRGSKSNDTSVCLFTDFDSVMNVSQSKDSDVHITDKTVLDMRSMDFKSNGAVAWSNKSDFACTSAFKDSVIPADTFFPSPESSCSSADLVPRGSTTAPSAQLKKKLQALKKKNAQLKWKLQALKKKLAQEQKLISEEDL
# T5 TCR beta: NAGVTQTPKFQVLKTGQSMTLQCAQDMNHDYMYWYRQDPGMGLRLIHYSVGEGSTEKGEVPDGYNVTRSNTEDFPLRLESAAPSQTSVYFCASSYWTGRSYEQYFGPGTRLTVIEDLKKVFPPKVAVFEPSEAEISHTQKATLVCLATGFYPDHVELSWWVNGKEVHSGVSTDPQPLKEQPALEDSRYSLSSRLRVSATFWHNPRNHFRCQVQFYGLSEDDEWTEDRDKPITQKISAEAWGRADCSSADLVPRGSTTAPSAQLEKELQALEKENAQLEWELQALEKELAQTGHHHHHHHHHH
# Experimental: Purified ISVDs were injected for 2 minutes (flow rate 45 μL/min) at different concentrations (between 0.2 nM and 200 nM) and dissociation was followed for 900 s. Regeneration was performed by injecting 3 M MgCl₂ for 3 minutes (flow rate 90 μL/min). […] Processed sensorgrams were analyzed based on the 1:1 interaction model (Langmuir binding model) using ProteOn Manager 3.1.0 (Version 3.1.0.6) software.
# [8] = biological target: T6, human TCR on primary human T cells (human, UniProt P01848 1-140; P01850 1-176); assay: flow cytometry competition on primary human T cells; competitor Flag-tagged T017000624 at EC30
# T6 construct: whole, on cells; also called human TCRαβ
# T6 TCR alpha (looked up): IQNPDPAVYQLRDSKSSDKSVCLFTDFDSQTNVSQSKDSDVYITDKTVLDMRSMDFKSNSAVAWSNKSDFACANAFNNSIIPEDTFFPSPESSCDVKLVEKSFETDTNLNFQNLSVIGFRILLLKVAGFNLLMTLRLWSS
# T6 TCR beta (looked up): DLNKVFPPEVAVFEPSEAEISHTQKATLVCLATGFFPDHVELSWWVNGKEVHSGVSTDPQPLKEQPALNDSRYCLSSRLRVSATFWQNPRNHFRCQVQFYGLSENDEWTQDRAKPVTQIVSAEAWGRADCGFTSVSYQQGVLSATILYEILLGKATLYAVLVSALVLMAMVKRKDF
# Experimental: (§1) T cells (human T cells obtained as described in Example 3 and cyno T cells purchased from LPT laboratory, Germany) were thawed and counted on the day of the assay and diluted to a concentration of 1E+06 cells/mL, before adding 75 μL to the wells of a V-bottom 96-well plate (Greiner, cat no 651180). Cells were washed once with cold FACS buffer, before adding 25 μL Nb and 25 μL competitor to the wells. […] Cells were resuspended and plates were incubated at 4° C. for 90 minutes, after which plates were washed twice in cold FACS buffer. […] Plates were washed twice in cold FACS buffer. […] Plates were washed twice in cold FACS buffer. Cells were resuspended in 55 μL 1/1000 diluted Propidium Iodide (Sigma-Aldrich, cat no P4170) in FACS buffer before acquiring data on the MACSQuant X (Miltenyi biotec).
# [9] = biological target: T7, cynomolgus TCR on primary cynomolgus T cells (cynomolgus); assay: flow cytometry competition on primary cynomolgus T cells; competitor Flag-tagged T017000623 at EC30
# T7 construct: whole, on cells; also called cyno TCRαβ
# Experimental: as §1
binder,measurement,setting,value
B1,IC50,[1],100 nM
same,IC50,[2],730 nM
same,Kd,[3],4.9 nM
B2,difference in human-cynomolgus cross-reactivity based on KD,[4],2.6 fold
B3,difference in human-cynomolgus cross-reactivity based on KD,[5],4.5 fold
B4,delta for human-cynomolgus cross-reactivity based on KD,[6],1.8 fold
B5,Kd,[7],11 nM
same,IC50,[8],190 nM
same,IC50,[9],250 nM
